According to US20220306744A1 (CRESCENDO BIOLOGICS, published 2022):

B1: 1.2b (VHH)
VHH: EVQLLESGGGLVKPGGSLRLSCAASGFTFSDYTMTWMRQAPGKGLEWVSYISTGGSIKYYTDSVKGRFTISRDNAKNSLYLQMNSLRADDTAVYYCAREAPLRLGESPHDAFDIWGQGTMVTVSS
B2: 1.3b (VHH)
VHH: QVQLVESGGGLVKPGGSLRLSCAASGFTFSDYTMTWMRQAPGKGLEWVSYISTGGSIKYYTDSVKGRFTISRDNAKNSLYLQMNSLRADDTAVYYCAREAPLRLGESPHDAFDIWGQGTMVTVSS
B3: 1.16b (VHH)
VHH: EVQLVESGGGLVKPGGSLRLSCAASGFTFSDYTMSWMRQAPGKGLEWVSYISTGGSIKYYTDSVKGRFTISRDNAKNSLYLQMNSLRADDTAVYYCAREAPLRLGESPHDAFDIWGQGTMVTVSS
B4: 1.45b (VHH)
VHH: QVQLVESGGGLVKPGGSLRLSCAASGFTFSDYSMSWMRQAPGKGLEWVSYISSGGGVIFYADSVKGRFTISRDNAKNSLYLQMNSLRADDTAVYYCAREAPLRLGESPHDAFDIWGQGTMVTVSS
B5: 1.27b (VHH)
VHH: QVTLKESGGGLVKPGGSLRLSCAASGFTFSDYTMTWMRQAPGKGLEWVSYISTGGSIKYYTDSVKGRFTISRDNAKNSLYLQMNSLRADDTAVYYCAREAPLRLGESPHDAFDIWGQGTMVTVSS
B6: 1.11b (VHH)
VHH: EVQLLESGGGLVKPGGSLRLSCAASGFTFSDYDMTWIRQAPGKGQEWVSYISRGGSTKYYADSVKGRFTISRDNAKNSLYLQMNSLRAEDTAVYYCAREAPLRLGETPHDAFDIWGQGTMVTVSS
B7: 1.4b (VHH)
VHH: QVQLVESGGGLVKPGGSLRLSCAASGFTFSDYYMIWMRQAPGKGLEWVSYISGGGTTKYYTDSVKGRFTISRDNAKNSLYLQMNSLRADDTAVYYCAREAPLRLGETPHDAFDIWGQGTMVTVSS
B8: 1.5b (VHH)
VHH: EVQLVESGGGLVKPGGSLRLSCAASGFTFSDYTMTWMRQAPGKGLEWVSYISTGGNTKYYTDSVKGRFTISRDNAKNSLYLQMNSLRADDTAVYYCAREAPLRLGESPHDAFDIWGQGTMVTVSS
B9: 1.47b (VHH)
VHH: QVQLVESGGGLVKPGGSLRLSCAASGFTFSDNSMSWMRQAPGKGLEWVSYISSGGGVIFYADSVKGRFTISRDNAKNSLYLQMNSLRADDTAVYYCAREAPLRLGESPHDAFDIWGQGTMVTVSS
B10: 1.31b (VHH)
VHH: QVTLKESGGGLVKPGGSLRLSCAASGFTFSDYTMTWMRQAPGKGLEWVSYISTGGSTKYYTDSVKGRFTISRDNAKNSLYLQMNSLRADDTAVYYCAREAPLRLGESPHDAFDIWGQGTMVTVSS
B11: 1.36b (VHH)
VHH: EVQLVESGGGLVKPGGSLRLSCAASGFTFSDYTMTWMRQAPGKGLEWVSYISTGGTIKYYTDSVKGRFTISRDNAKNSLFLQMNSLRADDTAVYYCAREAPLRLGESPHDAFDIWGQGTMVTVSS
B12: 1.23b (VHH)
VHH: QITLKESGGGLVKPGGSLRLSCAASGFTFSDYTMSWMRQAPGKGLEWVSYISTGGTIKYYTDSVKGRFTISRDNAKNSLYLQMNSLRADDTAVYYCAREAPLRLGESPHDAFDIWGQGTMVTVSS
B13: 1.9b (VHH)
VHH: QVQLVESGGGLVKPGGSLRLSCAASGFTFGDYTMTWMRQAPGKGLEWVSYISTGGTIKYYTDSVKGRFTISRDNAKNSLYLQMDSLRADDTAVYYCAREAPLRLGESPHDAFDIWGQGTMVTVSS
B14: 1.37b (VHH)
VHH: QVQLVESGGGLVKPGGSLRLSCAASGFTFSDYTMTWMRQAPGKGLEWVSYISTGGSIKYYTDSVKGRFTISRDNAKNSLFLQMNSLRADDTAVYYCAREAPLRLGESPHDAFDIWGQGTMVTVSS
B15: 1.44b (VHH)
VHH: QVQLVESGGGLVKPGGSLRLSCAASGFTFSDNSMTWMRQAPGKGLEWVSYISSGGAVKFYADSVKGRFTISRDNAKNSLYLQMNSLRADDTAVYYCAREAPLRLGESPHDAFDIWGQGTMVTVSS
B16: 1.30b (VHH)
VHH: QVTLKESGGGLVKPGGSLRLSCAASGFTFSDYTMTWMRQAPGKGLEWVSYISTGGSIKYYTDSVKGRFTISRDNARNSLYLQMNSLRAEDTAVYYCAREAPLRLGESPHDAFDIWGQGTMVTVSS
B17: 1.29b (VHH)
VHH: QVTLKESGGGLVKPGGSLRLSCAASGFTFSDYTMSWMRQAPGKGLEWVSYISTGGTIKYYTDSVKGRFTISRDNAKNSLYLQMNSLRADDTAVYYCAREAPLRLGESPHDAFDIWGQGTMVTVSS
B18: 1.39b (VHH)
VHH: QVQLQESGGGLVKPGGSLRLSCAASGFTFSDYTMTWMRQAPGKGLEWVSYISTGGSIKYYTDSVKGRFTISRDNAKNSLYLQMNSLRADDTAVYYCAREAPLRLGESPHDAFDIWGQGTMVTVSS
B19: 1.22b (VHH)
VHH: EVQLVESGGGLVKPGGSLRLSCAASGFTFSDYTMTWMRQAPGKGLEWVSYISTGGSIKYYTDSVKGRFTISRDNAKNSLYLQMNSLRADDTAVYYCAREAPLRLGESPHDAFDIWGQGTMVTVSS
B20: 1.10b (VHH)
VHH: QVQLVESGGGLVKPGGSLRLSCAASGFTFSDYTMSWMRQAPGKGLEWISYISLGGNTKYYTDSVKGRFTISRDNAKNSLYLQMNSLRADDTAVYYCAREAPLRLGESPHDAFDIWGQGTMVTVSS
B21: 1.42b (VHH)
VHH: QVQLVESGGGLVKPGGSLRLSCAASGFTFSDNSMTWMRQAPGKGLEWVSYISSGGGVKFYADSVKGRFTISRDNAKNSLYLQMNSLRADDTAVYYCAREAPLRLGESPHDAFDIWGQGTMVTVSS
B22: 1.17b (VHH)
VHH: EVQLVESGGGLVKPGGSLRLSCAASGFTFSDYTMTWMRQAPGKGLEWVSYISTGGSIKYYTDSVKGRFTISRDNAKNSLYLQMNSLRVDDTAVYYCAREAPLRLGESPHDAFDIWGQGTMVTVSS
B23: 1.46b (VHH)
VHH: QVQLVESGGGLVKPGGSLRLSCAASGFTFSDSSMSWMRQAPGKGLEWVSYISSGGGVIFYADSVKGRFTISRDNAKNSLYLQMNSLRADDTAVYYCAREAPLRLGESPHDAFDIWGQGTMVTVSS
B24: 1.35b (VHH)
VHH: EVQLLESGGGLVKPGGSLRLSCAASGFTFSDYTMTWMRQAPGKGLEWVSYISTGGSIKYYTDSVKGRFTISRDNAKNSLYLQMNSLRVDDTAVYYCAREAPLRLGESPHDAFDIWGQGTMVTVSS
B25: 1.43b (VHH)
VHH: QVQLVESGGGLVKPGGSLRLSCAASGFTFSDSSMTWMRQAPGKGLEWVSYISSGGGVIFYADSVKGRFTISRDNAKNSLYLQMNSLRADDTAVYYCAREAPLRLGESPHDAFDIWGQGTMVTVSS
B26: 1.34b (VHH)
VHH: EVQLVESGGGLVKPGGSLRLSCAASGFTFSDYTMTWMRQAPGKGLEWVSYISTGGSVKYYTDSVKGRFTISRDNAKNSLYLQMNSLRADDTAVYYCAREAPLRLGESPHDAFDIWGQGTMVTVSS
B27: 1.20b (VHH)
VHH: EVQLLESGGGLVKPGGSLRLSCAASGFTFSDYTMTWMRQAPGKGLEWVSYISSGGSIKFYADSVKGRFTISRDNAKNSLYLQMNSLRAEDTAVYYCAREAPLRLGESPHDAFDIWGQGTMVTVSS
B28: 1.19b (VHH)
VHH: QVQLVESGGGLVKPGGSLRLSCAASGFTFSDYTMTWMRQAPGKGLEWVSYISTGGSIKYYTDSVKGRFTISRDNAKNSLYLQMNSLRAEDTAVYYCAREAPLRLGETPHDAFDIWGQGTMVTVSS
B29: 1.6b (VHH)
VHH: EVQLLESGGGLVKPGGSLRLSCAASGFTFSDYTMTWMRQAPGKGLEWVSYISTGGTIKYYTDSVKGRFTISRDNAKNSLYLQMSSLRADDTAVYYCAREAPLRLGESPHDAFDIWGQGTMVTVSS
B30: 1.8b (VHH)
VHH: EVQLVESGGGLVKPGGSLRLSCAASGFTFSDYTMTWMRQAPGKGLEWVSYISTGGSIKYYTDSVKGRFTISRDNAKNSLYLQMNSLRAGDTAVYYCAREAPLRLGESPHDAFDIWGQGTMVTVSS
B31: 1.32b (VHH)
VHH: QVTLKESGGGLVKPGGSLRLSCAASGFTFSDDYMMWIRQAPGKGLEWVSYISSGGSIIYYADSVKGRFTISRDNAKNSLYLQMNSLRAEDTAVYYCAREAPLRLGESPHDAFDIRGQGTMVTVSS
B32: 1.21b (VHH)
VHH: EVQLVESGGGLVKPGGSLRLSCAASGFTFSDYTMTWMRQAPGKGLEWVSYISTGGSIKYYTDSVKGRFTISRDNAKNSLYLQMNSLRADDTAVYYCAREAPLRLGESPHDAFDTWGQGTMVTVSS

The binders below were run against T1, human PD-1 expressed on cells (CHO TREX human PD1 cell line, full-length human PD-1 sequence) (human, UniProt Q15116 21-288) (assay: worded summary of the screens).
T1 construct: Also used for human PD-1 on Jurkat reporter cells, on PathHunter cells and on PHA-stimulated human CD4+ T cells; also called CHO human PD1 cells; CHO human PD-1 cells
T1 sequence (Q15116 21-288): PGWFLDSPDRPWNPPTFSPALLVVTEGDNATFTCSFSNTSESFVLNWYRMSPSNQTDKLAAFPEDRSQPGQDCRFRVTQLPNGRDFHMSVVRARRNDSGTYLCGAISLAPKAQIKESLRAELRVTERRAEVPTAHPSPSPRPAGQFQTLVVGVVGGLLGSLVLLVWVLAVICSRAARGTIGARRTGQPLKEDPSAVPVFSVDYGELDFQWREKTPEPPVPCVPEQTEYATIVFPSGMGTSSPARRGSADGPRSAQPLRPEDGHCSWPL

Binder | binding result
B1 | binds
B2 | binds
B3 | binds
B4 | binds
B5 | binds
B6 | binds
B7 | binds
B8 | binds
B9 | binds
B10 | binds
B11 | binds
B12 | binds
B13 | binds
B14 | binds
B15 | binds
B16 | binds

Binder | binding result
B17 | binds
B18 | binds
B19 | binds
B20 | binds
B21 | binds
B22 | binds
B23 | binds
B24 | binds
B25 | binds
B26 | binds
B27 | binds
B28 | binds
B29 | binds
B30 | binds
B31 | binds
B32 | binds
